Data reported in article PMC4109796.

Biological target: STAT3 (UniProt P40763)
Test: co-immunoprecipitation, immunoblot
Conditions: reference: wild-type EZH2; sites S21

binding against the reference: lost
Substance: EZH2 (from UniProt Q15910) EZH2 S21A
